Results: PMC2695464, “On the mechanism of autoinhibition of the RhoA-specific nucleotide exchange factor PDZRhoGEF” (BMC Structural Biology, 2009)

Biological target: human RhoA^F25N (residues 1–181) (human, UniProt P61586 1-181, F25N)
Assay: cell-based or functional assay

human RhoA^F25N (residues 1–181), sequence (P61586 1-181 F25N): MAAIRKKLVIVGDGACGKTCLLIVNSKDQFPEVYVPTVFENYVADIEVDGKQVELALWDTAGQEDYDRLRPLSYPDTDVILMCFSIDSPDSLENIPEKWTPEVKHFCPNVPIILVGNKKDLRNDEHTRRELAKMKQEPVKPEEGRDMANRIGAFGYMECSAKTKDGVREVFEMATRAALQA

- catalytic activity in the nucleotide exchange assay on RhoA (mant-GTP fluorescence): 3.3 fold over the isolated DH-PH tandem
B1: PRG^4R: PRG^672–1081 with D706R, E708R, E710R, D712R (domain or fragment, human, UniProt O15085 672-1081, looked up)
chain: TPKMGRRSIESPSLGFCTDTLLPHLLEDDLGQLSRLRPRPRAQNWQHTVGKDVVAGLTQREIDRQEVINELFVTEASHLRTLRVLDLIFYQRMKKENLMPREELARLFPNLPELIEIHNSWCEAMKKLREEGPIIKEISDLMLARFDGPAREELQQVAAQFCSYQSIALELIKTKQRKESRFQLFMQEAESHPQCRRLQLRDLIISEMQRLTKYPLLLESIIKHTEGGTSEHEKLCRARDQCREILKYVNEAVKQTENRHRLEGYQKRLDATALERASNPLAAEFKSLDLTTRKMIHEGPLTWRISKDKTLDLHVLLLEDLLVLLQKQDEKLLLKCHSKTAVGSSDSKQTFSPVLKLNAVLIRSVATDKRAFFIICTSKLGPPQIYELVALTSSDKNTWMELLEEAVRNA
